Test results from patent US12329823B2 (The Scripps Research Institute, priority 2021, dated 2025).
Like-named read-outs stand apart in the source and are kept apart here.

What was measured:
cynomolgous monkey GLP1R = cynomolgous monkey GLP1R (Macaca fascicularis, UniProt F8V479); assay: In vitro potency, cynomolgous monkey GLP1R activation (receptor-mediated cAMP synthesis); assay type: cell-based; conditions: Table 12; read-out: In Vitro Potency GLP1R EC50, Cyno
Method: (§1) GLP-1R-CRE or HEK293-GIPR-CRE cells were seeded in 384-well plates at a density of 5000 cells per well and cultured for 18 h in DMEM with 10% FBS at 37° C. and 5% CO2. Cells were treated with peptides in a dose dependent manner for 24 h, and receptor activation was reported by luminescence intensities, using One-Glo (Promega, WI) luciferase reagent following manufacturer's instruction. The EC50 of each peptide was determined using GraphPad Prism 6 software (GraphPad, San Diego, CA). Results are depicted in FIGS. 6A-6B, FIGS. 7A-7B, FIGS. 8A-8B, FIGS. 9A-9B, and Tables 7-12. Measurements of peptide conjugate potency were expressed as half maximal effective concentration (EC50) values.

[1] = Pharmacokinetics in CD-1 mouse, I.V. or S.C. 1 mg/kg, plasma concentration by LC-MS; conditions: for AUC(0-inf): AUCINF; for MRT last: MRTLAST; for half-life: T1/2, Table 14;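 as to all read-outs here: peptide levels in plasma quantified by LC-MS across multiple sampling times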
Method: The peptide plasma concentration at various time points was determined using LC-MS.

dog GIPR = biological target: T1, dog GIPR (Canis lupus familiaris, UniProt A0A8I3MPG1); assay: In vitro potency, dog GIPR activation (receptor-mediated cAMP synthesis); assay type: cell-based; conditions: Table 12; read-out: In Vitro Potency GIPR EC50, Dog
T1 sequence (A0A8I3MPG1 24-449): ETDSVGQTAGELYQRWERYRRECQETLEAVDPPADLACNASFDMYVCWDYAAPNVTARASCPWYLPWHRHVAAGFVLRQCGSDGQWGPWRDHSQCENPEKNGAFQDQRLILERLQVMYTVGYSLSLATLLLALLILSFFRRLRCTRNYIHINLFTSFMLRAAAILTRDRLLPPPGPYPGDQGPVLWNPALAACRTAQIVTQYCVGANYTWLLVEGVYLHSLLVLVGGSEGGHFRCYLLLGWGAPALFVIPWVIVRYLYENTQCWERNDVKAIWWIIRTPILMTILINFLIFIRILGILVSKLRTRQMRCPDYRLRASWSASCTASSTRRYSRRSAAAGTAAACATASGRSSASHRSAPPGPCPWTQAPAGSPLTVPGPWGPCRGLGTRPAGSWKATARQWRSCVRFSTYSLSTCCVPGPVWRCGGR
Method: as §1

human GLP-1R = human GLP-1R (Homo sapiens, UniProt P43220); assay: In vitro receptor activation reporter assay (CRE-Luc, HEK293-GLP-1R-CRE cells; receptor-mediated cAMP synthesis); assay type: cell-based; design: expressed in transfected cells; host or cells: HEK293 (CRE-HEK293, HEK293-GLP-1R-CRE)
human GLP-1R, sequence (P43220 24-463): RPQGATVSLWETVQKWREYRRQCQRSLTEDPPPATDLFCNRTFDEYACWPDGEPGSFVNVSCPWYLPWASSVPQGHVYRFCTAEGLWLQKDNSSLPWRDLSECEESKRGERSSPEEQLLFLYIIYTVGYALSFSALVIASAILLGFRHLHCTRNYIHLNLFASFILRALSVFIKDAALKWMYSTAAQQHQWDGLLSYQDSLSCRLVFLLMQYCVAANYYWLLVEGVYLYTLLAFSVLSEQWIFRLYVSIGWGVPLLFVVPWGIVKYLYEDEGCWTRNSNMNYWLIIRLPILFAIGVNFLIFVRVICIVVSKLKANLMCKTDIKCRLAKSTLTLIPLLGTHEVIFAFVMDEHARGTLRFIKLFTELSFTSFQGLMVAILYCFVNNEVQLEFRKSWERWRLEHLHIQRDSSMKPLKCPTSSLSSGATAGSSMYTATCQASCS
Method: HEK293 cells were infected with lentivirus encoding firefly luciferase gene under the control of cAMP responsive element (CRE) promoter (Qiagen, The Netherlands) and then were selected using 1 μg mL^−1 puromycin (Life Technologies, Carlsbad) for 1 week. The surviving cells (referred to as CRE-HEK293) were expanded and then transfected with a G418 selective mammalian expression plasmid encoding human GLP-1R or GIPR. In brief, GLP-1R or GIPR plasmid was transfected into CRE-HEK293 cells using Lipofectamine 2000 and selected with 400 μg mL^−1 Geneticin (Life Technologies, Carlsbad, CA). Single colony stable cell line overexpressing CRE-luciferase and GLP-1R or GIPR (HEK293-GLP-1R-CRE or HEK293-GIPR-CRE) was then established for in vitro activity assay.
HEK293 cells were infected with lentivirus encoding firefly luciferase gene under the control of cAMP responsive element (CRE) promoter (Qiagen, The Netherlands) and then were selected using 1 μg/mL puromycin (Life Technologies, Carlsbad) for 1 week. The surviving cells (referred to as CRE-HEK293) were expanded and then transfected with a G418 selective mammalian expression plasmid encoding human GLP-1R. In brief, GLP-1R plasmid was transfected into CRE-HEK293 cells using Lipofectamine 2000 and selected with 400 μg/mL Geneticin (Life Technologies, Carlsbad, CA). Single colony stable cell line overexpressing CRE-luciferase and GLP1R was then established for in vitro activity assay.

dog GLP1R = biological target: T2, dog GLP1R (Canis lupus familiaris, UniProt A0A8I3NUR9); assay: In vitro potency, dog GLP1R activation (receptor-mediated cAMP synthesis); assay type: cell-based; conditions: Table 12
T2 sequence (A0A8I3NUR9 1-464): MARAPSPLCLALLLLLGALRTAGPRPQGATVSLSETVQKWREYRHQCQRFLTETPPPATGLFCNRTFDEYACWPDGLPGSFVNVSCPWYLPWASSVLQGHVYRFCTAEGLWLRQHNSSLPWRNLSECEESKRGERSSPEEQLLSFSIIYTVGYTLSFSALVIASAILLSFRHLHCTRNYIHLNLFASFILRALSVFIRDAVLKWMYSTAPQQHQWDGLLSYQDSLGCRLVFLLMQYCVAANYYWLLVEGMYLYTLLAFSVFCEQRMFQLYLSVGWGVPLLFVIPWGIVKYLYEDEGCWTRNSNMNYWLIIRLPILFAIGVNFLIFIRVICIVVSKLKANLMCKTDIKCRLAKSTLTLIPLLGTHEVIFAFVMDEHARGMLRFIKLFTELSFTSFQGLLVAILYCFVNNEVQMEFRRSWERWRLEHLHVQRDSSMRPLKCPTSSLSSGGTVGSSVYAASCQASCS
Method: as §1

mouse GLP1R = biological target: T3, mouse GLP1R (Mus musculus, UniProt O35659); assay: In vitro potency, mouse GLP1R activation (receptor-mediated cAMP synthesis); assay type: cell-based; conditions: Table 12
T3 sequence (O35659 22-463): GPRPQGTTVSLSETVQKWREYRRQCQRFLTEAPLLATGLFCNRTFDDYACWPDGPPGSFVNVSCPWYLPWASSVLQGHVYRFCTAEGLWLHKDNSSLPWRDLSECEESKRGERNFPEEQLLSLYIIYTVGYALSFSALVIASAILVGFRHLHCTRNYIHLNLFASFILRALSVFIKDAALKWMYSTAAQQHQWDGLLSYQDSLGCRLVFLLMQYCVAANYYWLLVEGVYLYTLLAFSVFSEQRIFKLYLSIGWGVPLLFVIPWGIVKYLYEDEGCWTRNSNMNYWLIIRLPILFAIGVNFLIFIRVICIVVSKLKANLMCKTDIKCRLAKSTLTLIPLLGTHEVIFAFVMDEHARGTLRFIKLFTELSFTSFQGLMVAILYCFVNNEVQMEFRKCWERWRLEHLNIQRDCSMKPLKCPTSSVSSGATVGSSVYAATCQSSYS
Method: as §1

in vivo = conditions: dog
[2] = mouse, in vivo, iv, 1 mg/kg, Table 14, IV 1 mg/kg
[3] = mouse, in vivo, sc, 1 mg/kg, Table 14, SC 1 mg/kg

cynomolgous monkey GLP1R, sequence (F8V479 24-463): as the sequence (P43220 24-463) above, with S112N, F120S, S202G, L205V, L237F, W241R, I249V counted along it

`CC[C@H](C)[C@H](NC(=O)[C@H](CC(C)C)NC(=O)[C@H](Cc1c[nH]c2ccccc12)NC(=O)[C@@H]1CSCC(=O)NCCN(C(=O)CCC(=O)NCCOCCOCCC(=O)NCCOCCOCCC(=O)NCCCC[C@H](NC(=O)CCCCCCCCCCCCCCCCCCC(=O)O)C(=O)O)CCNC(=O)CSC[C@H](NC(=O)[C@H](CCCCN)NC(=O)[C@H](CC(=O)O)NC(=O)[C@H](CC(C)C)NC(=O)[C@H](Cc2ccc(O)cc2)NC(=O)[C@@H](NC(=O)[C@H](CO)NC(=O)[C@H](Cc2ccc(O)cc2)NC(=O)[C@H](CC(=O)O)NC(=O)[C@H](CO)NC(=O)[C@@H](NC(=O)[C@H](Cc2ccccc2)NC(=O)[C@@H](NC(=O)CNC(=O)[C@H](CCC(=O)O)NC(=O)C(C)(C)NC(=O)[C@@H](N)Cc2ccc(O)cc2)[C@@H](C)O)[C@@H](C)O)[C@@H](C)CC)C(=O)N[C@@H](C)C(=O)N[C@@H](C)C(=O)NC(C)(C)C(=O)N[C@@H](CCC(=O)O)C(=O)N[C@@H](Cc2ccccc2)C(=O)N[C@@H](C(C)C)C(=O)N1)C(=O)N[C@@H](C)C(=O)NCC(=O)NCC(=O)N1CCC[C@H]1C(=O)N[C@@H](CO)C(=O)N[C@@H](CO)C(=O)NCC(=O)N[C@@H](C)C(=O)N1CCC[C@H]1C(=O)N1CCC[C@H]1C(=O)N1CCC[C@H]1C(=O)N[C@@H](CO)C(N)=O` [mCMV268] showed an EC50 (cynomolgous monkey GLP1R) of 0.22 nM, a bioavailability ([1]; CD-1, mouse, plasma, sc, 1 mg/kg) of 64% and a Cl ([1]; Table 14, SC 1 mg/kg) of 4.8 mL/h/kg. The Vd ([1]; Table 14, SC 1 mg/kg) was 0.087 L/kg, the clearance ([1]; mouse, in vivo, iv, 1 mg/kg) was 3 mL/h/kg and the AUC(0-t) ([1]; mouse, in vivo, iv, 1 mg/kg, AUC0-24, Table 14, IV 1 mg/kg) was 204 µg·h/mL. The AUC(0-inf) [1, 2] was 327 µg·h/mL, the AUC(0-t) ([1]; mouse, in vivo, iv, 1 mg/kg, AUCLAST, Table 14, IV 1 mg/kg) was 315 µg·h/mL and the Cmax [1, 2] was 34000 ng/mL. For the same compound, the MRT last [1, 2] was 19.5 h, the half-life ([1]; mouse, in vivo, iv, 1 mg/kg, IV 1 mg/kg) was 14.8 h and the Tmax [1, 2] was 0.5 h. It also gave a Vd ([1]; mouse, in vivo, iv, 1 mg/kg, Vd, Table 14, IV 1 mg/kg) of 0.067 L/kg, an AUC(0-t) ([1]; mouse, in vivo, sc, 1 mg/kg, AUC0-24, Table 14, SC 1 mg/kg) of 92.1 µg·h/mL and an AUC(0-inf) [1, 3] of 208 µg·h/mL. The AUC(0-t) ([1]; mouse, in vivo, sc, 1 mg/kg, AUCLAST, Table 14, SC 1 mg/kg) was 200 µg·h/mL, the Cmax [1, 3] was 4780 ng/mL and the MRT last [1, 3] was 27.8 h. The half-life ([1]; mouse, in vivo, sc, 1 mg/kg, SC 1 mg/kg) was 12.8 h, the Tmax [1, 3] was 24 h and the EC50 (dog GIPR) was 0.42 nM. It also gave an EC50 (human GLP-1R; In Vitro Potency GLPIR EC50, 10% FBS, Table 11, human, 10% FBS) of 1.96 ± 0.46 nM, an EC50 (human GLP-1R; unnumbered table, average of runs, read-out: EC50 GLP1R average) of 0.03 nM and an EC50 (human GLP-1R; unnumbered table, run 02/19, read-out: EC50 GLP1R 02/19) of 0.02 nM. It also gave an EC50 (human GLP-1R; unnumbered table, run 3/25, read-out: EC50 GLP1R 3/25) of 0.03 nM, an EC50 (human GLP-1R; unnumbered table, run 03/26, read-out: EC50 GLP1R 03/26) of 0.03 nM and an EC50 (dog GLP1R) of 1.48 nM. The EC50 (mouse GLP1R) was 0.26 nM, the AUC(0-t) (in vivo; iv) was 59.2 µg·h/mL and the Cmax (in vivo; iv) was 8500 ng/mL. The T last (in vivo; iv) was 168 h, the Tmax (in vivo; iv) was 0.693 h and the Vd (in vivo; iv) was 0.0957 L/kg. The clearance (in vivo; iv) was 1.09 mL/h/kg, the half-life (in vivo; iv) was 63.9 h and the AUC(0-t) (in vivo; po) was 1.7 µg·h/mL. For the same compound, the Cl (in vivo; po) was 1300 mL/h/kg, the Cmax (in vivo; po) was 31.4 ng/mL and the T last (in vivo; po) was 144 h. For the same compound, the Tmax (in vivo; po) was 1 h, the bioavailability (in vivo; po) was 0.27%, 0.27%, and the half-life (in vivo; po) was 77.8 h.
